Assay results reported in US20180135019A1.

Legend:
[1] = biological target: STRO-1 monoclonal antibody; test: competition: STRO-1 pre-incubated with GST-L393, flow cytometry on UE7T-13 cells, relative to pre-incubation with GST alone
[2] = biological target: STRO-1 monoclonal antibody; test: competition: STRO-1 pre-incubated with rh-HSC70 overnight at 4 C, flow cytometry of STRO-1 on UE7T-13 cells
[3] = biological target: heat shock cognate 70 (HSC70; HSPA8) on the surface of UE7T-13 cells (human) (UniProt P11142); test: flow cytometry on UE7T-13 cells, hybridoma supernatant, fluorescein anti-mouse IgM
Sequence of UniProt P11142 (P11142 2-646 limits assumed): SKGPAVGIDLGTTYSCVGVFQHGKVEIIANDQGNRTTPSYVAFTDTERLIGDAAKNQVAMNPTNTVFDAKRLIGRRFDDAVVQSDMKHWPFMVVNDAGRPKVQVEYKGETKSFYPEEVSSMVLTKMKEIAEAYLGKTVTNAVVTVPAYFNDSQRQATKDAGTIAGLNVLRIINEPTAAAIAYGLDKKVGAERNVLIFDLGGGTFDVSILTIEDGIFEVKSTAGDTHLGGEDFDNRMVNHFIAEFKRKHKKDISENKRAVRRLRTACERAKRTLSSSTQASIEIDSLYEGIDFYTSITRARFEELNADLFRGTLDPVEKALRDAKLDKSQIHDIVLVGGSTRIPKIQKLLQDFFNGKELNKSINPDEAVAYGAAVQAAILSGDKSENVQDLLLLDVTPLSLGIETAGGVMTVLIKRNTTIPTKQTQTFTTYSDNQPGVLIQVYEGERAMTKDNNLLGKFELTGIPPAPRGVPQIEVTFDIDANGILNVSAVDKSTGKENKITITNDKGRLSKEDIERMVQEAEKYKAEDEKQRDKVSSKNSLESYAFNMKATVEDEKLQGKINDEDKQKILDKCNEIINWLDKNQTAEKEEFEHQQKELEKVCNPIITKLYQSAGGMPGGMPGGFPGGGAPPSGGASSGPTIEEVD

With “GST-L393 (N-terminal Glutathione S-transferase fusion of the first 393 amino acids of human HSC70) (from UniProt A2Q0Z1 1-393)” the reduction in antibody binding [1] was 60%.
For “recombinant human HSC70 (Enzo) (from UniProt A2Q0Z1 1-646)”, the reduction in MFI [2] was 30%.
For STRO-1 monoclonal antibody, the MFI [3] was 17200.
